Here are results for twelve molecules from patent US20240270821A1, “GIP/GLP1/GCG TRI-RECEPTOR AGONISTS AND USES THEREOF” (priority 2023, published 2024).

Residue numbers refer to the chain shown, from its start.

T1: human GIP receptor (human) (UniProt P48546)
T1 sequence (looked up): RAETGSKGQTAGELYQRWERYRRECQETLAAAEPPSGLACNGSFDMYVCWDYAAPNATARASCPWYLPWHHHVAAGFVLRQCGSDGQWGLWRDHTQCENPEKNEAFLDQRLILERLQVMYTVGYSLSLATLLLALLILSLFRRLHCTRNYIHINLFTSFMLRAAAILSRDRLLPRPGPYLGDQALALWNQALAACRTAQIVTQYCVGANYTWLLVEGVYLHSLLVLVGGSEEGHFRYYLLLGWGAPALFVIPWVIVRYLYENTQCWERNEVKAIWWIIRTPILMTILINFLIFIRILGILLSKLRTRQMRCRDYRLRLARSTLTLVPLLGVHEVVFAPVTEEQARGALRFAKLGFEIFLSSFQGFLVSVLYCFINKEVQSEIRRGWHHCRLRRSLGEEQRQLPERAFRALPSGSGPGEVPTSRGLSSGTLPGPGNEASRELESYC

B1: Example 400 (peptide)
chain: YXQGTXTSDYSIXLDKKAQXAFIEYLEEGGPSSGAPPPE
modifications: synthetic construct; SITE 2: note = 2-Aminoisobutyric Acid; SITE 6: note = alpha-methyl-2-fluoro-L-phenylalanine; SITE 13: note = alpha-methyl-leucine; SITE 17: note = Lysine is chemically modified through conjugation of the epsilon-amino group of the Lysine side chain with (2-[2-(2-Amino-ethoxy)-et)
B2: Example 393 (peptide)
chain: B1 chain with S11X, X13L, E39S
modifications: synthetic construct; SITE 2: note = 2-Aminoisobutyric Acid; SITE 6: note = alpha-methyl-L-phenylalanine; SITE 11: note = alpha-methyl-L-serine; SITE 17: note = Lysine is chemically modified through conjugation of the epsilon-amino group of the Lysine side chain with (2-[2-(2-Amino-ethoxy)-ethoxy]-ac)
B3: Example 385 (peptide)
chain: B1 chain with X13L, E27L, E39S
modifications: not fully specified; synthetic construct; SITE 2: note = 2-Aminoisobutyric Acid; SITE 6: note = alpha-methyl-2-fluoro-L-phenylalanine; SITE 17: note = Lysine is chemically modified through conjugation of the epsilon-amino group of the Lysine side chain with (2-[2-(2-Amino-ethoxy)-ethoxy]-acetyl)2-(gamma-Glu)-CO-(CH2 )18
B4: Example 392 (peptide)
chain: B1 chain with X13L, E39S
modifications: synthetic construct; SITE 2: note = 2-Aminoisobutyric Acid; SITE 6: note = alpha-methyl-L-phenylalanine; SITE 17: note = Lysine is chemically modified through conjugation of the epsilon-amino group of the Lysine side chain with (2-[2-(2-Amino-ethoxy)-ethoxy]-acetyl)-(gamma-Glu)-CO-(CH2) 16-CO2H; SIT
B5: Example 387 (peptide)
chain: B1 chain with X13L, E39S
modifications: not fully specified; synthetic construct; SITE 2: note = 2-Aminoisobutyric Acid; SITE 6: note = alpha-methyl-2-fluoro-L-phenylalanine; SITE 17: note = Lysine is chemically modified through conjugation of the epsilon-amino group of the Lysine side chain with (2-[2-(2-Amino-ethoxy)-ethoxy]-acetyl)-(gamma-Glu)-CO-(CH2) 16-
B6: Example 394 (peptide)
chain: B1 chain with E39S
modifications: synthetic construct; SITE 2: note = 2-Aminoisobutyric Acid; SITE 6: note = alpha-methyl-L-phenylalanine; SITE 13: note = alpha-methyl-leucine; SITE 17: note = Lysine is chemically modified through conjugation of the epsilon-amino group of the Lysine side chain with (2-[2-(2-Amino-ethoxy)-ethoxy]-ace)
B7: Example 386 (peptide)
chain: B1 chain with X13L, E27L
modifications: not fully specified; synthetic construct; SITE 2: note = 2-Aminoisobutyric Acid; SITE 6: note = alpha-methyl-2-fluoro-L-phenylalanine; SITE 17: note = Lysine is chemically modified through conjugation of the epsilon-amino group of the Lysine side chain with (2-[2-(2-Amino-ethoxy)-ethoxy]-acetyl)2-(gamma-Glu)-CO-(CH2 )18
B8: Example 388 (peptide)
chain: B1 chain with X13L
modifications: not fully specified; synthetic construct; SITE 2: note = 2-Aminoisobutyric Acid; SITE 6: note = alpha-methyl-2-fluoro-L-phenylalanine; SITE 17: note = Lysine is chemically modified through conjugation of the epsilon-amino group of the Lysine side chain with (2-[2-(2-Amino-ethoxy)-ethoxy]-acetyl)-(gamma-Glu)-CO-(CH2) 16-
B9: Example 380 (peptide)
chain: YXQGTXTSDXXIXLDXKAQXXFIEXLLEGGPSSXEPPPE
modifications: synthetic construct; SITE 2: note = 2-Aminoisobutyric Acid; SITE 6: note = alpha-methyl-2-fluoro-L-phenylalanine; SITE 10: note = 3-(4-Pyridyl)-L-alanine; SITE 11: note = alpha-methyl-L-serine; SITE 13: note = alpha-methyl-leucine; SITE 16: note = L-ornithine; SITE 17: note = Lysine is chemically mo
B10: Example 391 (peptide)
chain: B9 chain with X10Y, X25Y, X34G
modifications: synthetic construct; SITE 2: note = 2-Aminoisobutyric Acid; SITE 6: note = alpha-methyl-L-phenylalanine; SITE 11: note = alpha-methyl-L-serine; SITE 13: note = alpha-methyl-leucine; SITE 16: note = L-ornithine; SITE 17: note = Lysine is chemically modified through conjugation of the epsilon-amino gr
B11: Example 389 (peptide)
chain: B9 chain with X10Y, I12S, X34G
modifications: synthetic construct; SITE 2: note = 2-Aminoisobutyric Acid; SITE 6: note = alpha-methyl-L-phenylalanine; SITE 11: note = alpha-methyl-L-serine; SITE 13: note = alpha-methyl-leucine; SITE 16: note = L-ornithine; SITE 17: note = Lysine is chemically modified through conjugation of the epsilon-amino gr
B12: Example 390 (peptide)
chain: B9 chain with X10Y, I12S, X13L, X34G
modifications: synthetic construct; SITE 2: note = 2-Aminoisobutyric Acid; SITE 6: note = alpha-methyl-L-phenylalanine; SITE 11: note = alpha-methyl-L-serine; SITE 16: note = L-ornithine; SITE 17: note = Lysine is chemically modified through conjugation of the epsilon-amino group of the Lysine side chain with (2-[

Sequence of hGLP-1R (P43220 24-463): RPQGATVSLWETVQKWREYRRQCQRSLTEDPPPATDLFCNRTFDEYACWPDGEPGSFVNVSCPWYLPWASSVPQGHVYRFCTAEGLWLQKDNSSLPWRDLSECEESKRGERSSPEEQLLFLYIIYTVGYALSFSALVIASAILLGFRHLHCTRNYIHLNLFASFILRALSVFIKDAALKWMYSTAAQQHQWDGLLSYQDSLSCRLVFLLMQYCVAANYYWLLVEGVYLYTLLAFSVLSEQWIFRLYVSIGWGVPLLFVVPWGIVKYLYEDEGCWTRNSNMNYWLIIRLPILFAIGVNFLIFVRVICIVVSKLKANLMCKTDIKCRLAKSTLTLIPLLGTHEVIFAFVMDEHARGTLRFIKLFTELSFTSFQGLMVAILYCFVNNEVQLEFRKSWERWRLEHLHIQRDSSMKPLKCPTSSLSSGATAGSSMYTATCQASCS

In one test the target is T1, human GIP receptor (human). Put plainly: cell-based or functional assay.
As for B1, the Relative cAMP EC50 came to 0.0158 nM and the cAMP Rel EC50, nM (1% HSA) is 3.86 nM.

Take B2: the Relative cAMP EC50 came out at 0.0458 nM and the cAMP Rel EC50, nM (1% HSA) was 12.4 nM.

B3 came in with a Relative cAMP EC50 of 0.0141 nM and a cAMP Rel EC50, nM (1% HSA) of 4.03 nM.

As for B4, the Relative cAMP EC50 turned out to be 0.0571 nM and the cAMP Rel EC50, nM (1% HSA) came out at 28.7 nM.

Molecule B5 yielded a Relative cAMP EC50 of 0.0276 nM and a cAMP Rel EC50, nM (1% HSA) of 5.64 nM.

B6 returned a cAMP Rel EC50, nM (1% HSA) of 7.22 nM.

B7 showed a Relative cAMP EC50 of 0.0156 nM and a cAMP Rel EC50, nM (1% HSA) of 5.62 nM.

B8 yielded a Relative cAMP EC50 of 0.0462 nM and a cAMP Rel EC50, nM (1% HSA) of 14.1 nM.

As for B9, the Relative cAMP EC50 is 0.0346 nM and the cAMP Rel EC50, nM (1% HSA) stood at 7.77 nM.

Molecule B10 displayed a Relative cAMP EC50 of 0.0298 nM and a cAMP Rel EC50, nM (1% HSA) of 11.5 nM.

The molecule B11 registered a Relative cAMP EC50 of 0.0354 nM and a cAMP Rel EC50, nM (1% HSA) of 18.3 nM.

Molecule B12 had a Relative cAMP EC50 of 0.122 nM and a cAMP Rel EC50, nM (1% HSA) of 37.8 nM.

The next test deals with human glucagon receptor (human) (UniProt P47871). The test is described as follows: cell-based or functional assay.
Sequence of human glucagon receptor (human) (P47871 26-477): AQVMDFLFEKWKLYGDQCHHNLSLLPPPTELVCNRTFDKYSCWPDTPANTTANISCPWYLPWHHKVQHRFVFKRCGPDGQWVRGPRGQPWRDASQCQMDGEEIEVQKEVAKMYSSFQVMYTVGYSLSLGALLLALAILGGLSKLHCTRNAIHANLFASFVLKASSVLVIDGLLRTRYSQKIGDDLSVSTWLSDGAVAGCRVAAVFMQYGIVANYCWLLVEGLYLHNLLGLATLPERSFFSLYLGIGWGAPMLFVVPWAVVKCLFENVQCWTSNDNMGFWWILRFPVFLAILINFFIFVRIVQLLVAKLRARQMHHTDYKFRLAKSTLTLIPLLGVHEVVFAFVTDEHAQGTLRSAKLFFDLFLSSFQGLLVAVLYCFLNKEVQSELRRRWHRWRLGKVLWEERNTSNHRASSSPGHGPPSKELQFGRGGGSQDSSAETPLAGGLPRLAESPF
In turn, B1 displayed a Relative cAMP EC50 of 2.53 nM and a cAMP Rel EC50, nM (1% HSA) of 265 nM.

Consider B2, for which the Relative cAMP EC50 is 0.947 nM and the cAMP Rel EC50, nM (1% HSA) came out at 151 nM.

Turning to B3, the Relative cAMP EC50 came to 1 nM and the cAMP Rel EC50, nM (1% HSA) worked out at 700 nM.

In the case of B4, the Relative cAMP EC50 was determined as 3.02 nM and the cAMP Rel EC50, nM (1% HSA) is 611 nM.

In turn, B5 had a Relative cAMP EC50 of 2.14 nM and a cAMP Rel EC50, nM (1% HSA) of 184 nM.

Turning to B6, the cAMP Rel EC50, nM (1% HSA) amounted to 1090 nM.

For B7, the Relative cAMP EC50 was determined as 1.7 nM and the cAMP Rel EC50, nM (1% HSA) was 734 nM.

Molecule B8 came in with a Relative cAMP EC50 of 2.15 nM and a cAMP Rel EC50, nM (1% HSA) of 603 nM.

B9 gave a Relative cAMP EC50 of 1.17 nM and a cAMP Rel EC50, nM (1% HSA) of 150 nM.

For B10, the Relative cAMP EC50 came to 3.04 nM and the cAMP Rel EC50, nM (1% HSA) was determined as 808 nM.

Take B11: the Relative cAMP EC50 worked out at 4.03 nM and the cAMP Rel EC50, nM (1% HSA) came out at 889 nM.

Molecule B12 returned a Relative cAMP EC50 of 3.08 nM and a cAMP Rel EC50, nM (1% HSA) of 549 nM.

The next test addresses hGLP-1R (Homo sapiens, UniProt P43220). Put plainly: cell-based or functional assay.
With B1, the Relative cAMP EC50 is 0.253 nM and the cAMP Rel EC50, nM (1% HSA) is 29.1 nM.

As to B2, the Relative cAMP EC50 came out at 0.211 nM and the cAMP Rel EC50, nM (1% HSA) came to 29.6 nM.

Molecule B3 gave a Relative cAMP EC50 of 0.235 nM and a cAMP Rel EC50, nM (1% HSA) of 86.1 nM.

The molecule B4 returned a Relative cAMP EC50 of 0.253 nM and a cAMP Rel EC50, nM (1% HSA) of 41.5 nM.

B5 came in with a Relative cAMP EC50 of 0.255 nM and a cAMP Rel EC50, nM (1% HSA) of 26.5 nM.

B6 showed a cAMP Rel EC50, nM (1% HSA) of 33.2 nM.

B7 returned a Relative cAMP EC50 of 0.278 nM and a cAMP Rel EC50, nM (1% HSA) of 98.6 nM.

Consider B8, for which the Relative cAMP EC50 stood at 0.373 nM and the cAMP Rel EC50, nM (1% HSA) was found to be 52.5 nM.

B9 returned a Relative cAMP EC50 of 0.354 nM and a cAMP Rel EC50, nM (1% HSA) of 30.6 nM.

In turn, B10 gave a Relative cAMP EC50 of 0.199 nM and a cAMP Rel EC50, nM (1% HSA) of 34.4 nM.

On to B11, for which the Relative cAMP EC50 was 0.134 nM and the cAMP Rel EC50, nM (1% HSA) was determined as 18.9 nM.

For B12, the Relative cAMP EC50 is 0.134 nM and the cAMP Rel EC50, nM (1% HSA) was 19.6 nM.
